From patent publication CN114989293A (UNIV CHONGQING MEDICAL; FENG YULIN, dated 2022) come the findings set out here.

B1: 单抗12-CQTS077 (antibody, V domains shown)
VH: EVQLVESGGGVVQPGGSLRLSCAASGFTFDDYAMNWVRQAPGKGLEWVSLISGDGDSPSYSGSVKGRFTISRDNSKNSLYLQMISLRTEDTALYYCARESPKLTGYFDYWGQGTLVTVSS
VL: SYVLTQPPSVSVAPGQTAGITCGGDDIGSKNVHWYQQKPGQAPVLVVYDDHDRPSGIPERFSGSNSGNTATLTISRVEAGDEADYYCQVWDSSSDPYVFGTGTKVTVL
B2: 单抗14-CQTS079 (antibody, V domains shown)
VH: EVQLVESGGGLIQPGGSLRLSCAASGFTVSSNYMSWVRQAPGKGLEWVSVIYSGDNTYYADSVKGRFTISRDNSKNTLYLQMNSLRAEDTAVYYCAKMLWLRGWFDPWGQGTLVTVSS
VL: NFMLTQPHSVSESPGKTVTISCTRSSGSIASNYVQWYQQRPGSAPTTVIYEDNQRPSGVPDRFSGSIDSSSDSASLTISGLKTEDEADYYCQSYDTSNHWVFGGGTKLTVL
B3: 单抗19-CQTS086 (antibody, V domains shown)
VH: EVQLVESGGGLVQPGGSLRLSCAASGITVNSNYMSWVRQAPGKGLEWVSVIYNGVTTYYADSVKGRFTISRDISKNTVYLQMNSLRAEDTAVYYCARAGWLRGRFDPWGQGTLVIVSS
VL: SYVLTQPPSVSVAPGQTASITCGGSNIGSKNVHWYQQKSGQAPVLVVYDDSDRPSGIPERFSGSNSGNTATLIINRVEAGDEADYYCQVWDSTTDLPHWVFGGGTKLTVL
B4: 单抗13-CQTS078 (antibody, V domains shown)
VH: QVQLVQSGAEVKKPGASVRVSCKASGDTFSSHYIHWVRQAPGQGLEWMGIINPSGGSTSYAQKFQGRVTMTSDTSTSTVYLELSSLRSEDTAVYYCARDQAFIVATLGPDYWGQGILVTVSS
VL: QTVVTQEPSFSVSPGGTVTLTCGLSSGSVSTSYYASWYQQTPGQAPRTLIYSTNTRSSGVPDRFSGSILGNKAALTITGAQADDESDYYCVLYMGSGIWVFGGGTKLTVL
B5: 单抗15-CQTS080 (antibody, V domains shown)
VH: QVTLRESGPALVRPTQTLTLTCTFAGFSLRTHGMCVSWIRQPPGKALEWLARIDWDGDKYYSTSLKTRLTISKDTSKDQVVLTMTNMDPVDTATYYCARFLVGGFKAWFDPWGQGTLVTVSS
VL: QSVLTQPPSVSAAPGQKVTISCSGSSSNIGNNYVSWYQQLPGIAPELLIYDNNKRPSGIPGRFSGSRSGTSATLDITGLQTGDEADYYCGTWDTSLNVWVFGGGTKLTVL
B6: 单抗17-CQTS082 (antibody, V domains shown)
VH: EVQLVQSGAEVKKPGESLKISCKGSGYSFSTYWIGWVRQMPGKGLEWMGIIYPYDSDTRYSPSFQGQVTISADKSISTAYLQWSSLKASDTAIYYCARQESGWSFDYWGQGTLVTVSS
VL: DIQMTQSPSSLSASVGDRVTITCRASQNINKYLNWYQQKPGKAPKLLIYVASSLQSGVPSRFSGSGSGTDFTLTISSLQPEDFATYYCQQSYSTPRTFGQGTKVEIK
B7: 单抗18-CQTS083 (antibody, V domains shown)
VH: EVQLVESGGGLVQPGGSLRLSCAASGLTVSSNYMSWVRQAPGKGLEWVSLIYSGGSTYYADSVKGRFTISRHNSKNTLYLQMNSLRAEDTAVYYCARDLEERGAMDVWGQGTTVTVSS
VL: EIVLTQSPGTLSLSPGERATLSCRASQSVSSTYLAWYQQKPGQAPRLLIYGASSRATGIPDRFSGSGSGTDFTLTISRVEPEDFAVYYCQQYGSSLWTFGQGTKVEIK

This experiment concerns the target 新冠病毒(SARS-CoV-2) S蛋白受体结合域 RBD (SARS-CoV-2, UniProt P0DTC2 319-541). Put plainly: ELISA, antigen coated at 2 μg/mL, 293T supernatant, anti-human IgG-ALP detection. (ELISA stands for enzyme-linked immunosorbent assay.)
For B1, the binding result is recorded as “binds”.
For B2 the value was “binds”; for B3, “binds”; for B4, “binds”.
The value for B5 was “binds”.
The value for B6 was “binds”; that for B7 was “binds”.
